B1: Lysine-specific demethylase 5B (Homo sapiens), Q9UGL1 (parent)
chain: MEAATTLHPGPRPALPLGGPGPLGEFLPPPECPVFEPSWEEFADPFAFIHKIRPIAEQTGICKVRPPPDWQPPFACDVDKLHFTPRIQRLNELEAQTRVKLNFLDQIAKYWELQGSTLKIPHVERKILDLFQLNKLVAEEGGFAVVCKDRKWTKIATKMGFAPGKAVGSHIRGHYERILNPYNLFLSGDSLRCLQKPNLTTDTKDKEYKPHDIPQRQSVQPSETCPPARRAKRMRAEAMNIKIEPEETTEARTHNLRRRMGCPTPKCENEKEMKSSIKQEPIERKDYIVENEKEKPKSRSKKATNAVDLYVCLLCGSGNDEDRLLLCDGCDDSYHTFCLIPPLHDVPKGDWRCPKCLAQECSKPQEAFGFEQAARDYTLRTFGEMADAFKSDYFNMPVHMVPTELVEKEFWRLVSTIEEDVTVEYGADIASKEFGSGFPVRDGKIKLSPEEEEYLDSGWNLNNMPVMEQSVLAHITADICGMKLPWLYVGMCFSSFCWHIEDHWSYSINYLHWGEPKTWYGVPGYAAEQLENVMKKLAPELFVSQPDLLHQLVTIMNPNTLMTHEVPVYRTNQCAGEFVITFPRAYHSGFNQGFNFAEAVNFCTVDWLPLGRQCVEHYRLLHRYCVFSHDEMICKMASKADVLDVVVASTVQKDMAIMIEDEKALRETVRKLGVIDSERMDFELLPDDERQCVKCKTTCFMSAISCSCKPGLLVCLHHVKELCSCPPYKYKLRYRYTLDDLYPMMNALKLRAESYNEWALNVNEALEAKINKKKSLVSFKALIEESEMKKFPDNDLLRHLRLVTQDAEKCASVAQQLLNGKRQTRYRSGGGKSQNQLTVNELRQFVTQLYALPCVLSQTPLLKDLLNRVEDFQQHSQKLLSEETPSAAELQDLLDVSFEFDVELPQLAEMRIRLEQARWLEEVQQACLDPSSLTLDDMRRLIDLGVGLAPYSAVEKAMARLQELLTVSEHWDDKAKSLLKARPRHSLNSLATAVKEIEEIPAYLPNGAALKDSVQRARDWLQDVEGLQAGGRVPVLDTLIELVTRGRSIPVHLNSLPRLETLVAEVQAWKECAVNTFLTENSPYSLLEVLCPRCDIGLLGLKRKQRKLKEPLPNGKKKSTKLESLSDLERALTESKETASAMATLGEARLREMEALQSLRLANEGKLLSPLQDVDIKICLCQKAPAAPMIQCELCRDAFHTSCVAVPSISQGLRIWLCPHCRRSEKPPLEKILPLLASLQRIRVRLPEGDALRYMIERTVNWQHRAQQLLSSGNLKFVQDRVGSGLLYSRWQASAGQVSDTNKVSQPPGTTSFSLPDDWDNRTSYLHSPFSTGRSCIPLHGVSPEVNELLMEAQLLQVSLPEIQELYQTLLAKPSPAQQTDRSSPVRPSSEKNDCCRGKRDGINSLERKLKRRLEREGLSSERWERVKKMRTPKKKKIKLSHPKDMNNFKLERERSYELVRSAETHSLPSDTSYSEQEDSEDEDAICPAVSCLQPEGDEVDWVQCDGSCNQWFHQVCVGVSPEMAEKEDYICVRCTVKDAPSRK
partner: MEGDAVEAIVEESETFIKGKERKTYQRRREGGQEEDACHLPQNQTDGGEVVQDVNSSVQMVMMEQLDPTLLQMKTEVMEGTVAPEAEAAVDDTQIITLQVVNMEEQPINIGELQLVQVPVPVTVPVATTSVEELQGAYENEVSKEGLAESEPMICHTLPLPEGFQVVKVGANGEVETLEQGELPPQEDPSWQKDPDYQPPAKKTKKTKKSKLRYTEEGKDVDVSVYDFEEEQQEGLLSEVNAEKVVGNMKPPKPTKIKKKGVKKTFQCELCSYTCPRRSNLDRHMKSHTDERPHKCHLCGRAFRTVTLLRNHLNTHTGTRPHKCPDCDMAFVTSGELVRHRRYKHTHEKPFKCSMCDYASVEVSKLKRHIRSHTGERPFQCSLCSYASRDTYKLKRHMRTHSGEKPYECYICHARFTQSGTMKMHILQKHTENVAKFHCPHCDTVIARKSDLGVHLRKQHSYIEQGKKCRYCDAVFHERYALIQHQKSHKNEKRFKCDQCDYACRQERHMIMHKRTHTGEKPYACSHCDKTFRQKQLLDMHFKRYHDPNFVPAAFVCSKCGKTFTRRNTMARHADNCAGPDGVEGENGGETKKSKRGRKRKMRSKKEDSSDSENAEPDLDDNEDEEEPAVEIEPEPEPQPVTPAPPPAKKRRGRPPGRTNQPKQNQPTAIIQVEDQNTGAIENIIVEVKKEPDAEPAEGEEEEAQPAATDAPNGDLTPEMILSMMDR

Variants of: B1
Conditions: with ctcf_human CTCF

Variant	effect of a mutation on the interaction
K1435R	decreasing interaction strength

Source: IntAct's records for PubMed 24937458
